The text below walks through data of patent publication US9907791B2, “Ron inhibitors for use in preventing and treating bone loss” (UNIVERSITY OF UTAH RESEARCH FOUNDATION, priority 2014, dated 2018).

Holding throughout (format): cell-based, mice
The test system of test [1] is bone marrow osteoclasts. In words: Osteoclast survival assay. The settings on record: 100 pg/mL MSP daily from day 7 for 48 hours. The protocol:
(§1) Bone marrow precursor cells were thawed and seeded at a density of 2×10^5 cells per well in a 24-well plate containing glass coverslips in α-MEM media containing 10% FBS and antibiotics. After adhering overnight, media was removed and media containing 33 ng/mL hM-CSF and 9 ng/mL muRANKL was added. Cells were allowed to differentiate for 7 days with media changed every 3 days. Coverslips were then imaged microscopically using phase contrast to determine osteoclast number in each well. To test survival, factor-containing media was removed and α-MEM media containing 10% FBS was added as well as MSP as indicated. Cells were cultured for an additional 48 hours, fixed with 10% NBF for 10 minutes and washed with 1×PBS. For TRAP fluorescent staining, the leukocyte acid phosphatase kit (Sigma, St. Louis, Mo.) was used according to the manufacturer's instructions, with the substitution of 200 μM ELF97 (Invitrogen, Waltham, Mass.) as a phosphatase substrate. Coverslips were incubated in TRAP solution for 15 minutes at 37 degrees, washed with 1×PBS and counterstained with DAPI. The number of multinucleated TRAP+ cells (containing 4 or more nuclei) within 5 representative fields were included for quantification. Experiments were performed in triplicate.

The next test deals with c-Src. In words: Western blot of osteoclast lysates, phospho-Src. The method, then:
Cells were serum starved (0.5% FBS) for 3 hours prior to lysate collection. Inhibitors were added 1 hour prior to lysis and MSP was added 15 min prior to lysis when indicated. Cells were washed with 1×PBS and harvested in lysis buffer (25 mM Tris-HCl, pH 7.5, 0.42 M NaCl, 1.5 mM MgCl2, 0.5 mM EDTA, 1 mM DTT, 25% sucrose, and 0.1% Triton X-100) plus 100× protease arrest (Bioscience, Bozeman, Mont.) and 100× orthovanadate. Primary antibodies used for immunoblotting include: anti-MSP (Santa Cruz, sc-6090, Dallas, Tex.) at a 1:250 dilution, anti-pan Akt (Cell Signaling, #4691S, Beverly, Mass.) at a 1:1000 dilution, anti-pan Erk (Cell Signaling, #4695, Beverly, Mass.) at a 1:1000 dilution, anti-phospho Akt (Cell Signaling, #9271 L, Beverly, Mass.) at a 1:500 dilution, anti-phospho Erk (Cell Signaling, #4370S, Beverly, Mass.) at a 1:500 dilution, anti-Src (Cell Signaling, #2110, Beverly, Mass.) at a 1:500 dilution, and anti-phospho Src (Y416) (Cell Signaling, #2113, Beverly, Mass.) at a 1:500 dilution. The secondary antibodies used were HRP-conjugated anti-goat IgG (Santa Cruz, Dallas, Tex.) and anti-rabbit IgG (Santa Cruz, Dallas, Tex.). Chemiluminescent signals were detected using Immun-Star HRP (BioRad, Hercules, Calif.).
A general note: A western blot detects proteins with antibodies after separation by electrophoresis.

Test [2] deals with bone marrow osteoclasts. In words: Osteoclast resorption assay. The settings on record: 100 pg/mL MSP daily day 9 to 12. The method, then:
Bone marrow osteoclasts were generated from 6 to 8 week old WT and RonTK−/− mice. Briefly, bone marrow was isolated from hindlimb bones and plated in α-MEM media containing 10% heat-inactivated fetal bovine serum (FBS, Sigma, St. Louis, Mo.), 100 units/mL penicillin-streptomycin (Hyclone), and 33 ng/mL human macrophage colony-stimulating factor (hM-CSF) (PeproTech, Rocky Hill, N.J.) for 24 hours. Non-adherent cells were collected and frozen for later use. To assess resorption activity, bone marrow precursor cells were thawed and seeded at a density of 1×10^5 cells per well in BioCoat Osteologic slides (BD Biosciences, San Jose, Calif.) in α-MEM media containing 10% FBS and antibiotics. After adhering overnight, media was removed and media containing 33 ng/mL hM-CSF and 9 ng/mL muRANKL (R & D systems, Minneapolis, Minn.) was added. The medium was changed every 3 days depending on acidification, and the assay was terminated as indicated. Recombinant human MSP was prepared and added daily as indicated. Cells were removed with 6% bleach and slides were viewed microscopically using phase-contrast with 20× magnification. Osteolytic resorption area within 5 representative fields was determined using Image J software, experiments were performed in triplicate. Recombinant MSP was prepared as follows (to be described in detail elsewhere): Concentrated, serum-free media from an MCF7 cell line engineered to overexpress MSP was cleaved with kallikrein (Invitrogen, Waltham, Mass.; 4 ng of kallikrein/1 μg of supernatant protein at 37° C. for 2.5 hours). The reaction was diluted to 20 mL with 10 mM sodium phosphate, pH 7.4 and loaded onto a 5 mL HiTrap heparin column (Millipore, Billerica, Mass.) equilibrated with 20 mL of 10 mM sodium phosphate, pH 7.4, at a rate of 1 mL/min. The column was washed with 10 mL of 10 mM sodium phosphate, pH 7.4, at a rate of 1 mL/min. […]

Test [3] relates to WT bone marrow precursor cells. In words: Osteoclast differentiation (TRAP+ osteoclasts). The note with it: 100 pg/mL MSP in presence of M-CSF and RANKL. The method, then:
as §1, with “Coverslips were incubated in TRAP solution for 15 minutes at 37 degrees, washed with 1×PBS and counterstained with DAPI.” left out, “Experiments were performed in triplicate.” left out
M-CSF and RANKL were present continuously beginning on day 1 until experimental analysis. […] TRAP+ cells were identified by fluorescent TRAP stain and cells with 4 or more nuclei were counted (***p<0.0001). […]

B1: MSP: recombinant human macrophage-stimulating protein, the RON ligand (protein)
chain: QRSPLNDFQVLRGTELQHLLHAVVPGPWQEDVADAEECAGRCGPLMDCRAFHYNVSSHGCQLLPWTQHSPHTRLRRSGRCDLFQKKDYVRTCIMNNGVGYRGTMATTVGGLPCQAWSHKFPNDHKYTPTLRNGLEENFCRNPDGDPGGPWCYTTDPAVRFQSCGIKSCREAACVWCNGEEYRGAVDRTESGRECQRWDLQHPHQHPFEPGKFLDQGLDDNYCRNPDGSERPWCYTTDPQIEREFCDLPRCGSEAQPRQEATTVSCFRGKGEGYRGTANTTTAGVPCQRWDAQIPHQHRFTPEKYACKDLRENFCRNPDGSEAPWCFTLRPGMRAAFCYQIRRCTDDVRPQDCYHGAGEQYRGTVSKTRKGVQCQRWSAETPHKPQFTFTSEPHAQLEENFCRNPDGDSHGPWCYTMDPRTPFDYCALRRCADDQPPSILDPPDQVQFEKCGKRVDRLDQRRSKLRVVGGHPGNSPWTVSLRNRQGQHFCGGSLVKEQWILTARQCFSSCHMPLTGYEVWLGTLFQNPQHGEPSLQRVPVAKMVCGPSGSQLVLLKLERSVTLNQRVALICLPPEWYVVPPGTKCEIAGWGETKGTGNDTVLNVALLNVISNQECNIKHRGRVRESEMCTEGLLAPVGACEGDYGGPLACFTHNCWVLEGIIIPNRVCARSRWPAVFTRVSVFVDWIHKVMRLG
modifications: left off: small tags and cut ends
notes: recombinant human macrophage-stimulating protein, the RON ligand
B1: in the test with bone marrow osteoclasts [1], the “number of surviving osteoclasts without RANKL and M-CSF” value is listed as “significantly augmented”. The “phosphorylated c-Src in WT osteoclasts” value with c-Src is reported as “increased Src phosphorylation”. For the same molecule, in the test on bone marrow osteoclasts [2], the “resorptive capacity of RonTK−/− osteoclasts” value is “no effect” and the “resorptive capacity of WT osteoclasts” value is “significant increase”. The osteoclast differentiation entry in test [3] is “did not increase osteoclast differentiation”.
